Experimental data as given in patent US20180037644A1 (Pfizer, published 2018).
Where two headings read alike, the source gives them in different places.

Key:
Test in all cases: cell-based or functional assay
human IL-33 (mm2) [1] = target: T1, human IL-33 (mm2) (human, UniProt O95760 112-270)
T1 chain: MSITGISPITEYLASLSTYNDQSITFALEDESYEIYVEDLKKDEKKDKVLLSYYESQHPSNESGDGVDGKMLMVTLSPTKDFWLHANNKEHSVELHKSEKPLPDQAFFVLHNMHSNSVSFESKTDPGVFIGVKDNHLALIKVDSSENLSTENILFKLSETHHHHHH

[2] = target: T2, cynomolgus monkey IL-33 (cys mut) (cynomolgus monkey)
T2 chain: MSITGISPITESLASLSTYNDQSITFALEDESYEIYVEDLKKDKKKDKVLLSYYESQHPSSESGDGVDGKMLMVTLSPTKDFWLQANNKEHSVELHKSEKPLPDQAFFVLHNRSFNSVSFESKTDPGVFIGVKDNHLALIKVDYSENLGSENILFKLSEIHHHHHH

human IL-33 WT (R&D) [3] = target: T3, human IL-33 WT (R&D) (human, UniProt O95760 112-270)
T3 sequence: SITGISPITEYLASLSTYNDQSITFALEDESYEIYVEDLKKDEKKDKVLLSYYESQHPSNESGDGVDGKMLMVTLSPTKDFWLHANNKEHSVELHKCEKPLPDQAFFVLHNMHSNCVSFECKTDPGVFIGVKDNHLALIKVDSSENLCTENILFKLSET

human IL-33 (mm2) [4] = target: T1, human IL-33 (mm2)
[5] = target: T2, cynomolgus monkey IL-33 (cys mut)
human IL-33 (mm2) [6] = target: T1, human IL-33 (mm2)
[7] = target: T2, cynomolgus monkey IL-33 (cys mut)
human IL-33 (mm2) [8] = target: T1, human IL-33 (mm2)
human IL-33 WT (R&D) [9] = target: T3, human IL-33 WT (R&D); remark: listed apart in the source
human IL-33 (mm2) [10] = target: T1, human IL-33 (mm2)
human IL-33 WT (R&D) [11] = target: T3, human IL-33 WT (R&D); remark: listed apart in the source
human IL-33 (mm2) [12] = target: T1, human IL-33 (mm2)
[13] = target: T2, cynomolgus monkey IL-33 (cys mut)
[14] = target: T4, wild-type cynomolgus monkey IL-33 (cynomolgus monkey)
T4 chain: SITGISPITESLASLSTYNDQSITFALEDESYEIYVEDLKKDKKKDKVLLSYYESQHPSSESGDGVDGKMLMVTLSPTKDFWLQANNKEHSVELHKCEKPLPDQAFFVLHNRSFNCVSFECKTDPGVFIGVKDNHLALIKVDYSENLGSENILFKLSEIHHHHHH

human IL-33 WT (R&D) [15] = target: T3, human IL-33 WT (R&D); remark: listed apart in the source
human IL-33 (mm2) [16] = target: T1, human IL-33 (mm2)
[17] = target: T2, cynomolgus monkey IL-33 (cys mut)
[18] = target: T4, wild-type cynomolgus monkey IL-33
human IL-33 WT (R&D) [19] = target: T3, human IL-33 WT (R&D); remark: listed apart in the source
human IL-33 (mm2) [20] = target: T1, human IL-33 (mm2)
[21] = target: T2, cynomolgus monkey IL-33 (cys mut)

B1: IL33-10 (antibody, human IgG1, kappa)
heavy: not shown
light: DIQMTQSPSSLSASVGDRVTITCKASQNINKHLDWYQQKPGKAPKLLIYFTNNLQTGVPSRFSGSGSGTDFTLTISSLQPEDFATYYCFQYNNGWTFGGGTKVEIKRTVAAPSVFIFPPSDEQLKSGTASVVCLLNNFYPREAKVQWKVDNALQSGNSQESVTEQDSKDSTYSLSSTLTLSKADYEKHKVYACEVTHQGLSSPVTKSFNRGEC
IC50, HEK293 ST2 NFkB (human IL-33 (mm2) [1]): 0.017 nM
IC50, HEK293 ST2 NFkB [2]: 0.132 nM
IC50, HEK293 ST2 NFkB WT IL-33 (human IL-33 WT (R&D) [3]): 0.117 nM
IC50, HEK293 ST2 NFkB mm2 (human IL-33 (mm2) [4]): 0.031 nM
IC50, whole blood IFNγ (human IL-33 (mm2) [4]): 0.121 nM
IC50, HEK293 ST2 NFkB cyno IL-33 [5]: 0.059 nM

B2: IL33-12 (antibody, human IgG1, kappa, V domains shown)
VH: EVQLVESGGGLVQPGGSLRLSCAASGFTFSSYWMYWVRQAPGKGLEWVASINNDGGNTYYLDSVKGRFTISRDNAKNSLYLQMNSLRAEDTAVYYCARGHYYYTSYSLGYWGQGTLVTVSS
VL: DIQMTQSPSSLSASVGDRVTITCKASQNINKHLDWYQQKPGKAPKLLIYFTNNLQTGVPSRFSGSGSGTDFTLTISSLQPEDFATYYCFQYNNGWTFGGGTKVEIKR
IC50, HEK293 ST2 NFkB (human IL-33 (mm2) [1]): 0.144 nM
IC50, HEK293 ST2 NFkB [2]: 3.46 nM
IC50, HEK293 ST2 NFkB (human IL-33 (mm2) [6]): 0.14 nM
IC50, HEK293 ST2 NFkB [7]: 0.943 nM

B3: IL33-45 (antibody, human IgG1, kappa, V domains shown)
VH: EVQLVESGGGLVQPGGSLRLSCAASGFTFSSYWMYWVRQAPGKGLEWVASITPDGGNTYYPDSVKGRFTISRDNAKNSLYLQMNSLRAEDTAVYYCARGHYYYTSYSLGYWGQGTLVTVSS
VL: DIQMTQSPSSLSASVGDRVTITCKASQNINKHLDWYQQKPGKAPKLLIYFTNNLQTGVPSRFSGSGSGTDFTLTISSLQPEDFATYYCFQYNNGWTFGGGTKVEIKR
IC50, HEK293 ST2 NFkB (human IL-33 (mm2) [6]): 0.325 nM
IC50, HEK293 ST2 NFkB [7]: 0.535 nM

B4: IL33-103 (antibody, human IgG1, kappa, V domains shown)
VH: EVQLVESGGGLVQPGGSLRLSCAASGFTFSSYWMYWVRQAPGKGLEWVAAITPNGGETYYPDSVKGRFTISRDNAKNSLYLQMNSLRAEDTAVYYCARGHYYYTSYSLGYWGQGTLVTVSS
VL: DIQMTQSPSSLSASVGDRVTITCKASQNINKHLDWYQQKPGKAPKLLIYFTNNLQTGVPSRFSGSGSGTDFTLTISSLQPEDFATYYCFQYNNGWTFGGGTKVEIKR
IC50, HEK293 ST2 NFkB WT IL-33 (human IL-33 WT (R&D) [3]): 0.178 nM
IC50, HEK293 ST2 NFkB mm2 (human IL-33 (mm2) [4]): 0.028 nM
IC50, whole blood IFNγ (human IL-33 (mm2) [4]): 0.104 nM
IC50, HEK293 ST2 NFkB cyno IL-33 [5]: 0.07 nM

B5: IL33-117 (antibody, human IgG1, kappa, V domains shown)
VH: EVQLVESGGGLVQPGGSLRLSCAASGFTFSSYWMYWVRQAPGKGLEWVASITPNGGEDYYPDSVKGRFTISRDNAKNSLYLQMNSLRAEDTAVYYCARGHYYYTSYSLGYWGQGTLVTVSS
VL: DIQMTQSPSSLSASVGDRVTITCKASQNINKHLDWYQQKPGKAPKLLIYFTNNLQTGVPSRFSGSGSGTDFTLTISSLQPEDFATYYCFQYNNGWTFGGGTKVEIKR
IC50, HEK293 ST2 NFkB WT IL-33 (human IL-33 WT (R&D) [3]): 0.155 nM
IC50, whole blood IFNγ (human IL-33 (mm2) [4]): 0.106 nM
IC50, HEK293 ST2 NFkB cyno IL-33 [5]: 0.052 nM

B6: IL33-167LS (antibody, human IgG1, kappa)
heavy: EVQLVESGGGLVQPGGSLRLSCAASGFTFSSYWMYWVRQAPGKGLEWVASITPNAGEDYYPDSVKGRFTISRDNAKNSLYLQMNSLRAEDTAVYYCARGHYYYTSYSLGYWGQGTLVTVSSASTKGPSVFPLAPSSKSTSGGTAALGCLVKDYFPEPVTVSWNSGALTSGVHTFPAVLQSSGLYSLSSVVTVPSSSLGTQTYICNVNHKPSNTKVDKKVEPKSCDKTHTCPPCPAPEAAGAPSVFLFPPKPKDTLMISRTPEVTCVVVDVSHEDPEVKFNWYVDGVEVHNAKTKPREEQYNSTYRVVSVLTVLHQDWLNGKEYKCKVSNKALPAPIEKTISKAKGQPREPQVYTLPPSREEMTKNQVSLTCLVKGFYPSDIAVEWESNGQPENNYKTTPPVLDSDGSFFLYSKLTVDKSRWQQGNVFSCSVLHEALHSHYTQKSLSLSPG
light: DIQMTQSPSSLSASVGDRVTITCKASQNINKHLDWYQQKPGKAPKLLIYFTNNLQTGVPSRFSGSGSGTDFTLTISSLQPEDFATYYCFQYNNGWTFGGGTKVEIKRTVAAPSVFIFPPSDEQLKSGTASVVCLLNNFYPREAKVQWKVDNALQSGNSQESVTEQDSKDSTYSLSSTLTLSKADYEKHKVYACEVTHQGLSSPVTKSFNRGEC
IC50, IFN-γ production in human PBMC (human IL-33 (mm2) [8]): 0.0011 nM
IC50, human whole blood (human IL-33 WT (R&D) [9]): 0.451 nM
IC50, human whole blood (human IL-33 (mm2) [10]): 0.013 nM
IC50, HEK293 ST2 NFkB (human IL-33 WT (R&D) [11]): 0.685 nM
IC50, HEK293 ST2 NFkB (human IL-33 (mm2) [12]): 0.13 nM
IC50, HEK293 ST2 NFkB [13]: 0.162 nM
Cynomolgus monkey:human IC50 ratio: wild-type IL-33 [14]: 6.2
IC50, HEK293 ST2 NFkB (DTT-pretreated IL-33) [14]: 1.56 nM
IC50, HEK293 ST2 NFkB (DTT-pretreated IL-33) (human IL-33 WT (R&D) [15]): 0.25 nM
IC50, HEK293 ST2 NFkB (human IL-33 (mm2) [16]): 0.037 nM
Cynomolgus monkey:human IC50 ratio: cysteine mutant IL-33 [17]: 1
IC50, HEK293 ST2 NFkB [17]: 0.036 nM

B7: IL33-310 (antibody, human IgG4 S228P, kappa, V domains shown)
VH: EVQLVESGGGLVQPGGSLRLSCAASGFTFSSFSMSWVRQAPGKGLEWVATISGGKTFTDYVDSVKGRFTISRDDSKNTLYLQMNSLRAEDTAVYYCTRANYGNWFFEVWGQGTLVTVSS
VL: EIVLTQSPATLSLSPGERATLSCRASESVAKYGLSLLNWFQQKPGQPPRLLIFAASNRGSGIPARFSGSGSGTDFTLTISSLEPEDFAVYYCQQSKEVPFTFGQGTKVEIKR
Cynomolgus monkey:human IC50 ratio: wild-type IL-33 [18]: 104
IC50, HEK293 ST2 NFkB [18]: 2.19 nM
IC50, HEK293 ST2 NFkB (human IL-33 WT (R&D) [19]): 0.021 nM
IC50, HEK293 ST2 NFkB (human IL-33 (mm2) [20]): 0.007 nM
Cynomolgus monkey:human IC50 ratio: cysteine mutant IL-33 [21]: 29.2
IC50, HEK293 ST2 NFkB [21]: 0.213 nM
Cynomolgus monkey:human IC50 ratio: wild-type IL-33 [14]: 27.1
IC50, HEK293 ST2 NFkB (DTT-pretreated IL-33) [14]: 1.64 nM
IC50, HEK293 ST2 NFkB (DTT-pretreated IL-33) (human IL-33 WT (R&D) [15]): 0.061 nM
IC50, HEK293 ST2 NFkB (human IL-33 (mm2) [16]): 0.018 nM
Cynomolgus monkey:human IC50 ratio: cysteine mutant IL-33 [17]: 32.5
IC50, HEK293 ST2 NFkB [17]: 0.59 nM

B8: IL33-312 (antibody, human IgG1, lambda, V domains shown)
VH: EVQLLESGGGLVQPGGSLRLSCAASGFTFSSYAMSWVRQAPGKGLEWVSGISAIDQSTYYADSVKGRFTISRDNSKNTLYLQMNSLRAEDTAVYYCARQKFMQLWGGGLRYPFGYWGQGTMVTVSS
VL: SYVLTQPPSVSVSPGQTASITCSGEGMGDKYAAWYQQKPGQSPVLVIYRDTKRPSGIPERFSGSNSGNTATLTISGTQAMDEADYYCGVIQDNTGVFGGGTKLTVLG
Cynomolgus monkey:human IC50 ratio: wild-type IL-33 [18]: 5.4
IC50, HEK293 ST2 NFkB [18]: 0.043 nM
IC50, HEK293 ST2 NFkB (human IL-33 WT (R&D) [19]): 0.008 nM
IC50, HEK293 ST2 NFkB (human IL-33 (mm2) [20]): 0.003 nM
Cynomolgus monkey:human IC50 ratio: cysteine mutant IL-33 [21]: 1.1
IC50, HEK293 ST2 NFkB [21]: 0.003 nM

B9: IL33-313 (antibody, human IgG1, lambda, V domains shown)
VH: EVQLLESGGGLVQPGGSLRLSCAASGFTFSSYAMSWVRQAPGKGLEWVSGIADDFTSTYYADPVKGRFTISRDNSKNTLYLQMNSLRAEDTAVYYCARDLWMMNYAGGLRYPFGYWGQGTMVTVSS
VL: SYVLTQPPSVSVSPGQTASITCSGERMGDKYAAWYQQKPGQSPVLVIYRDTKRPSGIPERFSGSNSGNTATLTISGTQAMDEADYYCGVLKQDTGVFGGGTKLTVLG
Cynomolgus monkey:human IC50 ratio: wild-type IL-33 [18]: 528
IC50, HEK293 ST2 NFkB [18]: 14.1 nM
IC50, HEK293 ST2 NFkB (human IL-33 WT (R&D) [19]): 0.027 nM
IC50, HEK293 ST2 NFkB (human IL-33 (mm2) [20]): 0.006 nM
Cynomolgus monkey:human IC50 ratio: cysteine mutant IL-33 [21]: 206
IC50, HEK293 ST2 NFkB [21]: 1.2 nM
